Article PMC12003248, “ERCC6L2 mitigates replication stress and promotes centromere stability” (Cell Reports, 2023)
Where no end group is shown, it is not given here.

B1: YFP-ERCC6L2^1053−1247: YFP-tagged C-terminal ERCC6L2 fragment (protein, UniProt Q5T890 1053-1247, looked up, fragment)
chain: FSFSKQSHRPRTIRDRTSFSSKLPSHNKKNSTFIPRKPMKCSNEKVVNQEQSYESMDKFLDGVQEVAYIHSNQNVIGSSKAENHMSRWAAHDVFELKQFSQLPANIAVCSSKTYKEKVDADTLPHTKKGQQPSEGSISLPLYISNPVNQKKKKVYHTNQTTFIIGETPKGIRRKQFEEMASYFNSSSVNEFAKHI
modifications: YFP tag
notes: YFP-tagged C-terminal ERCC6L2 fragment
B2: Biotinylated aPIP ERCC6L2 peptide (residues 790–811) (peptide, UniProt Q5T890 790-811, looked up)
peptide: SKASSSPGQLTLLQCGFSKLLE
modifications: also: biotin, position not given here
notes: ERCC6L2, human, residues 790-811, wild-type atypical PIP-box (consensus Q-[FL]-x-L-x-Q-C-G-[FL]); also called ERCC6L2 aPIP; biotinylated ERCC6L2^790−811 peptide; source: synthetic peptide (Genscript)
B3: GST-tagged ERCC6L2^753−819 fragment (domain or fragment, human, UniProt Q5T890 753-819, looked up)
chain: AAEPLAKEACDLCSDFSDEEPVGATGIKTAKNKAPDSSKASSSPGQLTLLQCGFSKLLETKCKAVED
B4: 880–1,098: C-terminal YFP-ERCC6L2 fragment (protein, UniProt Q5T890 880-1098, looked up, fragment)
chain: EKKIKNTDKHCILQNVTESEDSDVICPTQYTTERFPDNSIRFKPPLEGSEDSETEHTVKTRNNDNSRNTDDKRNGIISKKLSPENTTLKSILKRKGTSDISDESDDIEISSKSRVRKRASSLRFKRIKETKKELHNSPKTMNKTNQVYAANEDHNSQFIDDYSSSDESLSVSHFSFSKQSHRPRTIRDRTSFSSKLPSHNKKNSTFIPRKPMKCSNEKV
modifications: YFP tag
notes: C-terminal YFP-ERCC6L2 fragment
B5: 728–1,098: C-terminal YFP-ERCC6L2 fragment (protein, UniProt Q5T890 728-1098, looked up, fragment)
chain: PRQPDCQECRGTEQAAEPLAKEACDLCSDFSDEEPVGATGIKTAKNKAPDSSKASSSPGQLTLLQCGFSKLLETKCKAVEDSDGNTASDDESSDEQPTCLSTEAKDAGCEKNQDSLGTSKHQKLDNILNPKEKHIFYKSEKILEQNISSKSDEKKIKNTDKHCILQNVTESEDSDVICPTQYTTERFPDNSIRFKPPLEGSEDSETEHTVKTRNNDNSRNTDDKRNGIISKKLSPENTTLKSILKRKGTSDISDESDDIEISSKSRVRKRASSLRFKRIKETKKELHNSPKTMNKTNQVYAANEDHNSQFIDDYSSSDESLSVSHFSFSKQSHRPRTIRDRTSFSSKLPSHNKKNSTFIPRKPMKCSNEKV
modifications: YFP tag
notes: as for B4
B6: 820–1,098: C-terminal YFP-ERCC6L2 fragment (protein, UniProt Q5T890 820-1098, looked up, fragment)
chain: SDEQPTCLSTEAKDAGCEKNQDSLGTSKHQKLDNILNPKEKHIFYKSEKILEQNISSKSDEKKIKNTDKHCILQNVTESEDSDVICPTQYTTERFPDNSIRFKPPLEGSEDSETEHTVKTRNNDNSRNTDDKRNGIISKKLSPENTTLKSILKRKGTSDISDESDDIEISSKSRVRKRASSLRFKRIKETKKELHNSPKTMNKTNQVYAANEDHNSQFIDDYSSSDESLSVSHFSFSKQSHRPRTIRDRTSFSSKLPSHNKKNSTFIPRKPMKCSNEKV
modifications: YFP tag
notes: as for B4
B7: 797–1,098: C-terminal YFP-ERCC6L2 fragment (protein, UniProt Q5T890 797-1098, looked up, fragment)
chain: KLLETKCKAVEDSDGNTASDDESSDEQPTCLSTEAKDAGCEKNQDSLGTSKHQKLDNILNPKEKHIFYKSEKILEQNISSKSDEKKIKNTDKHCILQNVTESEDSDVICPTQYTTERFPDNSIRFKPPLEGSEDSETEHTVKTRNNDNSRNTDDKRNGIISKKLSPENTTLKSILKRKGTSDISDESDDIEISSKSRVRKRASSLRFKRIKETKKELHNSPKTMNKTNQVYAANEDHNSQFIDDYSSSDESLSVSHFSFSKQSHRPRTIRDRTSFSSKLPSHNKKNSTFIPRKPMKCSNEKV
modifications: YFP tag
notes: as for B4
B8: ERCC6L2^701−1247: C-terminal ERCC6L2 fragment (protein, UniProt Q5T890 701-1247, looked up, fragment)
chain: REGQVEAGIMTATTWLKEGPPAHKLEMPRQPDCQECRGTEQAAEPLAKEACDLCSDFSDEEPVGATGIKTAKNKAPDSSKASSSPGQLTLLQCGFSKLLETKCKAVEDSDGNTASDDESSDEQPTCLSTEAKDAGCEKNQDSLGTSKHQKLDNILNPKEKHIFYKSEKILEQNISSKSDEKKIKNTDKHCILQNVTESEDSDVICPTQYTTERFPDNSIRFKPPLEGSEDSETEHTVKTRNNDNSRNTDDKRNGIISKKLSPENTTLKSILKRKGTSDISDESDDIEISSKSRVRKRASSLRFKRIKETKKELHNSPKTMNKTNQVYAANEDHNSQFIDDYSSSDESLSVSHFSFSKQSHRPRTIRDRTSFSSKLPSHNKKNSTFIPRKPMKCSNEKVVNQEQSYESMDKFLDGVQEVAYIHSNQNVIGSSKAENHMSRWAAHDVFELKQFSQLPANIAVCSSKTYKEKVDADTLPHTKKGQQPSEGSISLPLYISNPVNQKKKKVYHTNQTTFIIGETPKGIRRKQFEEMASYFNSSSVNEFAKHI
modifications: YFP tag
notes: C-terminal ERCC6L2 fragment
B9: 701–1,098: C-terminal YFP-ERCC6L2 fragment (protein, UniProt Q5T890 701-1098, looked up, fragment)
chain: REGQVEAGIMTATTWLKEGPPAHKLEMPRQPDCQECRGTEQAAEPLAKEACDLCSDFSDEEPVGATGIKTAKNKAPDSSKASSSPGQLTLLQCGFSKLLETKCKAVEDSDGNTASDDESSDEQPTCLSTEAKDAGCEKNQDSLGTSKHQKLDNILNPKEKHIFYKSEKILEQNISSKSDEKKIKNTDKHCILQNVTESEDSDVICPTQYTTERFPDNSIRFKPPLEGSEDSETEHTVKTRNNDNSRNTDDKRNGIISKKLSPENTTLKSILKRKGTSDISDESDDIEISSKSRVRKRASSLRFKRIKETKKELHNSPKTMNKTNQVYAANEDHNSQFIDDYSSSDESLSVSHFSFSKQSHRPRTIRDRTSFSSKLPSHNKKNSTFIPRKPMKCSNEKV
modifications: YFP tag
notes: as for B4
B10: ERCC6L2^795−816 aPIP peptide (peptide, UniProt Q5T890 795-816, looked up)
peptide: SPGQLTLLQCGFSKLLETKCKA
notes: ERCC6L2, human, residues 795-816, atypical PIP-box; Used for ITC and for co-crystallisation with PCNA; also called ERCC6L2 aPIP peptide; aPIP(ERCC6L2); source: synthetic peptide (Genscript)

Tests used:
CENP-A = assay: Colocalization of YFP-ERCC6L2 constructs with CENP-A; assay type: cell-based, human; conditions: U2OS cells; N(cells) > 1,400 for mutants
His-tagged human PCNA [1] = molecular target: T1, His-tagged human PCNA (human, UniProt P12004 1-261); assay: pull-down; biotinylated peptides immobilised on magnetic streptavidin beads, incubated with purified His-tagged PCNA 1 h at 4°C in 50 mM Tris-HCl pH 8, 150 mM NaCl, 1 mM DTT, 0.2% Triton X-; anti-PCNA Western blot; conditions: both partners purified
T1 construct: PCNA, human; cloned into the NdeI and XhoI sites of pET28a for the protein with N-terminal His-tag; The ITC methods say only 'PCNA'; the paragraph on purification of His-tagged PCNA describes the preparation for ITC; also called recombinant PCNA; source: E. coli Rosetta (pET28a), purified (Ni-NTA, Q-sepharose, Superdex S-200); not shown: His-tag, N-terminal, kept
T1 sequence (P12004 whole entry): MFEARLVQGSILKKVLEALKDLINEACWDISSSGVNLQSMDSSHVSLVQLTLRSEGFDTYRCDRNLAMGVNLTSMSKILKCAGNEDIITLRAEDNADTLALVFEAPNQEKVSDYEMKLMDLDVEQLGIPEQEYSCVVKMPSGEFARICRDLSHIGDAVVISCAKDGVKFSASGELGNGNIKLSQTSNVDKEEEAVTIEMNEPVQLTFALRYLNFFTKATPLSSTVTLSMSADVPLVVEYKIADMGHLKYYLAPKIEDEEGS

His-tagged human PCNA [2] = molecular target: T1, His-tagged human PCNA; assay: pull-down; GST-tagged ERCC6L2 753-819 immobilised on GST-beads, incubated with purified His-tagged PCNA 1 h at 4°C in 50 mM Tris-HCl pH 8, 150 mM NaCl, 1 mM DTT, 0.2% Triton X-; Western blot against PCNA; conditions: both partners purified
U2OS cells = assay: Nuclear patterns resembling replication foci of YFP-ERCC6L2 truncations; assay type: cell-based, human; conditions: YFP-tagged fragments
Source text: Figure 4 ERCC6L2 contains an atypical PCNA-binding motif (A) ERCC6L2 colocalizes with PCNA at CENP-C-negative foci. U2OS cells transfected with YFP-ERCC6L2 were stained for CENP-C and PCNA after pre-extraction of soluble proteins. ERCC6L2-and PCNA-positive, but CENP-C negative foci (red arrows) are marked in zoomed images. (B) ERCC6L2 colocalizes with RPA at CENP-C-negative foci. U2OS cells transfected with YFP-ERCC6L2 were stained for CENP-C and RPA. ERCC6L2- and RPA-positive, but CENP-C-negative foci (red arrows) are marked in zoomed images. (C) Colocalization of the C-terminal ERCC6L2^701−1561 fragment with endogenous PCNA. (D) PCNA pull-down with biotinylated peptides. Biotinylated PIP-box and APIM motif peptides were bound to streptavidin beads and incubated with recombinant PCNA. Interactions were assayed by western blotting with PCNA antibody. Wild-type ZRANB3 PIP-box peptide (ZRANB3 PIP) was used as a positive control. Mutant ZRANB3 PIP-box peptide (Q519A, F525A, and F526A, ZRANB3 PIP^∗) served as a negative control. ERCC6L2 aPIP and ERCC6L2 aPIP^∗ denote atypical ERCC6L2 peptides (residues 790–811) containing the WT and the Q798A mutant sequences, respectively. (E) Expression patterns of the indicated C-terminal YFP-ERCC6L2 constructs. […] (F) PCNA pull-down with GST-tagged peptides. Wild-type and Q798A mutant versions of the GST-tagged ERCC6L2 fragments (residues 753–819) were immobilized on GST beads (shown on the left) and incubated with recombinant PCNA. Interactions were assessed by western blotting against PCNA (shown on the right). (G) Schematic representation of different ERCC6L2 fragments tested for formation of PCNA-like foci. A region at the N terminus of fragment 701–1,098 is zoomed below to show sequence alignment of different ERCC6L2 proteins. The conserved atypical PIP-box is marked in a green frame. Targeted mutation sites are indicated by red arrows. (H) Colocalization of YFP-ERCC6L2 wild type, ATPase dead K165 ERCC6L2, and aPIP^∗ mutant (Q798A, C804A, F806A) with CENP-A. N(cells) > 1,400. (I) Colocalization of YFP-ERCC6L2 wild type, ATPase dead K165 ERCC6L2, and aPIP^∗ mutant (Q798A, C804A, F806A) with CENP-B. N(cells) > 1,000. (J) Front and side views of the PCNA ring (white surface and ribbons) with the ERCC6L2 aPIP-box peptide (green sticks). (K) Overview of the hydrogen-bond interaction network between the ERCC6L2 aPIP-box peptide (green) and PCNA (white). Hydrogen bonds are shown as yellow dotted lines. (L) Hydrophobic pocket on PCNA surface (white) with conserved residues that form “hydrophobic plug” (Leu801, Cys804, and Phe806; shown as green sticks) in the ERCC6L2 aPIP-box peptide. (M) Magnified view of the boxed region in (I). (N) Magnified view of the hydrogen-bond interaction network between the ERCC6L2 aPIP-box peptide (green) and PCNA (white, labels in italics). Hydrogen bonds are shown as yellow dotted lines. Intramolecular hydrogen bonds between ERCC6L2 aPIP-box residues are also shown. (H) and (I) Box and whisker plots. […] (A), (B), (C), (E) Scale bar, 5 μm.
U2OS cells (ATCC) were grown in 24 well plates. Where indicated, cells were transfected with the YFP constructs […] with siRNAs. […] Samples were analyzed by confocal microscopy using Olympus FV1200 or Zeiss 880 Airyscan microscopes, or using EVOS M7000 Imaging System.

endogenous PCNA = assay: Colocalization of YFP-ERCC6L2 constructs with endogenous PCNA; assay type: cell-based, human; conditions: YFP-tagged, U2OS cells
Source text: Figure 4 ERCC6L2 contains an atypical PCNA-binding motif (A) ERCC6L2 colocalizes with PCNA at CENP-C-negative foci. U2OS cells transfected with YFP-ERCC6L2 were stained for CENP-C and PCNA after pre-extraction of soluble proteins. ERCC6L2-and PCNA-positive, but CENP-C negative foci (red arrows) are marked in zoomed images. (B) ERCC6L2 colocalizes with RPA at CENP-C-negative foci. U2OS cells transfected with YFP-ERCC6L2 were stained for CENP-C and RPA. ERCC6L2- and RPA-positive, but CENP-C-negative foci (red arrows) are marked in zoomed images. (C) Colocalization of the C-terminal ERCC6L2^701−1561 fragment with endogenous PCNA. (D) PCNA pull-down with biotinylated peptides. Biotinylated PIP-box and APIM motif peptides were bound to streptavidin beads and incubated with recombinant PCNA. Interactions were assayed by western blotting with PCNA antibody. Wild-type ZRANB3 PIP-box peptide (ZRANB3 PIP) was used as a positive control. Mutant ZRANB3 PIP-box peptide (Q519A, F525A, and F526A, ZRANB3 PIP^∗) served as a negative control. […] Interactions were assessed by western blotting against PCNA (shown on the right). […]
U2OS cells (ATCC) were grown in 24 well plates. […] Samples were analyzed by confocal microscopy using Olympus FV1200 or Zeiss 880 Airyscan microscopes, or using EVOS M7000 Imaging System. […]

His-tagged human PCNA [3] = molecular target: T1, His-tagged human PCNA; assay: ITC; 25°C, PBS with 1 mM β-mercaptoethanol; 15 μM PCNA in the chamber, 215 μM ERCC6L2 aPIP peptide injected in 20 steps of 2 μL; single set of independent binding sites model; conditions: both partners purified

Row | Molecule | nuclear pattern resembling replication foci (U2OS cells) | also measured
1 | B1 |  | colocalization with CENP-A (CENP-A): formed foci marked by the CENP-A protein
2 | B2 |  | binding result (His-tagged human PCNA [1]): binds
3 | B3 |  | binding result (His-tagged human PCNA [2]): binds
4 | B4 | do not | 
5 | B5 | show patterns reminiscent of replication foci | 
6 | B6 | do not | 
7 | B7 | show patterns reminiscent of replication foci | 
8 | B8 |  | colocalization with endogenous PCNA (endogenous PCNA): efficiently colocalized with endogenous PCNA
9 | B9 | show patterns reminiscent of replication foci | 
10 | B10 |  | Kd (His-tagged human PCNA [3]): ~6 µM
